Reference: patent US6897049B1, “Proteins producing an altered immunogenic response and methods of making and using the same” (Genencor International, Inc., priority 1998, dated 2005)

What was measured:
naïve human CD4+ T-cells = assay: T-cell proliferation assay with differentiated dendritic cells and naïve human CD4+ T-cells (tritium incorporation); format: cell-based; details: using the methods herein
Protocol: Fresh human peripheral blood cells were collected from “naïve” humans, i.e., persons not known to be exposed to or sensitized to Bacillus lentus protease, for determination of antigenic epitopes in protease from Bacillus lentus and human subtilisin. Naïve humans is intended to mean that the individual is not known to have been exposed to or developed a reaction to protease in the past. Peripheral mononuclear blood cells (stored at room temperature, no older than 24 hours) were prepared for use as follows: Approximately 30 mls of a solution of buffy coat preparation from one unit of whole blood was brought to 50 ml with Dulbecco's phosphate buffered solution (DPBS) and split into two tubes. […] The cell density of the resultant solution was measured by hemocytometer. Viability was measured by trypan blue exclusion.
From the resulting solution, a differentiated dendritic cell culture was prepared from the peripheral blood mononuclear cell sample having a density of 10^8 cells per 75 ml culture flask in a solution as follows: • (1) 50 ml of serum free AIM V media (Gibco) was supplemented with a 1:100 dilution beta-mercaptoethanol (Gibco). […] Adherent and non-adherent cells were then centrifuged at 600 G for 5 minutes, washed in DPBS and counted. • (4) The prepared dendritic cells were placed into a 96 well round bottom array at 2×10^4/well in 100 microliter total volume of AIM V media. […]

guinea pig splenocytes = assay: T cell epitope mapping with splenocytes of immunized guinea pigs (thymidine incorporation); format: cell-based; details: guinea pigs immunized with 20 μg subtilisin; 15-mer peptides at 5 μM; >10 animals
Protocol: B. lentis and B. amyloliquefaciens subtilisin T cell epitope mapping: Guinea pigs were immunized with 20 μg/immunization of subtilisin from either B. lentis or B. amyloliquefaciens. Animals were immunized subcutaneously in adjuvant every two weeks for 10 to 12 weeks. A single cell suspension of guinea pig splenocytes was created from each animal's spleen. Cells were plated at 5×10^5 splenocytes per well in round bottom 96 well plates. 15-mer peptides off-set by 3 amino acids were synthesized by Mimotopes. Peptides were resuspended to 1 mM in DMSO. Peptides were added to the cells at a final concentration of 5 μM. Cultures were incubated for 5 days at 37°, 5% CO2. Wells were pulsed with 0.5 μCi tritiated thymidine, and allowed to incubate for an additional 18 hours. Wells were harvested, and thymidine incorporation assessed.

Hartley guinea pigs = assay: Guinea pig model of immunogenicity, antigen-specific IgG titers by direct ELISA; format: in vivo
Protocol: Guinea pig immunizations: Adult female Hartley guinea pigs were immunized with various doses of B. amyloliquefaciens subtilisin and GP002. The doses were 1, 5, 10, and 20 μg/dose. There were four animals for each dose. Animals were immunized subcutaneously with enzyme in Complete Freund's Adjuvant for the first immunization. All subsequent immunizations were performed in Incomplete Freund's adjuvant. Animals were immunized, and a serum sample taken, every two weeks.
ELISA: A direct ELISA was performed. Costart EIA plates were coated with 10 μg/ml of the immunizing enzyme in PBS overnight at 4° C. Plates were washed and blocked with 1% BSA in PBS. Serum samples were diluted in 1% BSA/PBS, and incubated on the enzymes coated plates for 1 hour. Serum samples were washed out, and biotinylated anti-guinea pig IgG was added at a 1:10,000 dilution in 1% BSA/PBS. The secondary reagent was incubated for 1 hour. The wells were washed, and avidin conjugated horse radish peroxidase was added to the wells at a 1:1000 dilution in 1% BSA/PBS. After 30 minutes, the substrate (ABTS) was added and the OD405 was read after 30 minutes.
Calculation of titers: Background was subtracted from the OD readings, and the results plotted for each individual guinea pig. […] The titer value was calculated from the linear regression equation for an OD=0.5. […]

[1] = system: HLA DR3/DQ2 transgenic mice; assay: Immunization of HLA-DR3/DQ2/C2D transgenic mice, antigen-specific IgG by direct ELISA; format: in vivo; details: 2 x 50 μg i.p.
Protocol: Adult male HLA-DR31DQ2/C2D mice were immunized with 50 μg of FNA or FNA Variant emulsified in Complete Freund's Adjuvant. The immunization was administered intraperitoneally. Two weeks later, the mice received another intraperitoneal immunization of 50 μg FNA or the Variant emulsified in Incomplete Freund's Adjuvant. One week later, the mice were bled via the retro-orbital route, and the serum collected. Serum was assessed for antigen-specific IgG antibodies in a direct ELISA protocol. Briefly, 96 well flat-bottomed EIA plates were coated overnight with 10 μg/ml of denatured FNA. Plates were washed, blocked with 1% Fetal Calf Serum, and serum was titered out at 1:10 dilutions. The serum was washed out of the wells, and antigen-specific IgG was detected with horse radish peroxidase conjugated anti-mouse IgG. Results are presented as serum dilution versus average optical density (×1000) in Table 1 and FIG. 21.

B1: proteinase K: Proteinase K from Tritirachium Album limber (protein, UniProt P06873 106-384, looked up)
Proteinase K: AAQTNAPWGLARISSTSPGTSTYYYDESAGQGSCVYVIDTGIEASHPEFEGRAQMVKTYYYSSRDGNGHGTHCAGTVGSRTYGVAKKTQLFGVKVLDDNGSGQYSTIIAGMDFVASDKNNRNCPKGVVASLSLGGGYSSSVNSAAARLQSSGVMVAVAAGNNNADARNYSPASEPSVCTVGASDRYDRRSSFSNYGSVLDIFGPGTSILSTWIGGSTRSISGTSMATPHVAGLAAYLMTLGKTTAASACRYIADTANKGDLSNIPFGTVNLLAYNNYQA
- immunogenic response compared with other commercially available proteases (naïve human CD4+ T-cells): lower immunogenic response

B2: B. lentis subtilisin: subtilisin protease from Bacillus lentus (GG36), SEQ ID NO: 6 (protein)
chain: AQSVPWGISRVQAPAAHNRGLTGSGVKVAVLDTGISTHPDLNIRGGASFVPGEPSTQDGNGHGTHVAGTIAALNNSIGVLGVAPSAELYAVKVLGASGSGSVSSIAQGLEWAGNNGMHVANLSLGSPSPSATLEQAVNSATSRGVLVVAASGNSGAGSISYPARYANAMAVGATDQNNNRASFSQYGAGLDIVAPGVNVQSTYPGSTYASLNGTSMATPHVAGAAALVKQKNPSWSNVQIRNHLKNTATSLGSTNLYGSGLVNAEAATR
- T cell epitopes found (guinea pig splenocytes): Two
- immunogenicity in Hartley strain guinea pigs (Hartley guinea pigs): highly immunogenic

B3: Bacillus amyloliquefaciens subtilisin: Bacillus amyloliquefaciens subtilisin (BPN′), SEQ ID NO: 3 (protein)
chain: AQSVPYGVSQIKAPALHSQGYTGSNVKVAVIDSGIDSSHPDLKVAGGASMVPSETNPFQDNNSHGTHVAGTVAALNNSIGVLGVAPSASLYAVKVLGADGSGQYSWIINGIEWAIANNMDVINMSLGGPSGSAALKAAVDKAVASGVVVVAAAGNEGTSGSSSTVGYPGKYPSVIAVGAVDSSNQRASFSSVGPELDVMAPGVSIQSTLPGNKYGAYNGTSMASPHVAGAAALILSKHPNWTNTQVRSSLENTTTKLGDSFYYGKGLINVQAAAQ
- T cell epitopes found (guinea pig splenocytes): none
- immunogenicity in Hartley strain guinea pigs (Hartley guinea pigs): comparatively non-immunogenic

B4: FNA: BPN′ with a Y217L substitution; precursor of the variant (protein, UniProt P00782 108-382, looked up, variant Y217L)
Subtilisin BPN': AQSVPYGVSQIKAPALHSQGYTGSNVKVAVIDSGIDSSHPDLKVAGGASMVPSETNPFQDNNSHGTHVAGTVAALNNSIGVLGVAPSASLYAVKVLGADGSGQYSWIINGIEWAIANNMDVINMSLGGPSGSAALKAAVDKAVASGVVVVAAAGNEGTSGSSSTVGYPGKYPSVIAVGAVDSSNQRASFSSVGPELDVMAPGVSIQSTLPGNKYGALNGTSMASPHVAGAAALILSKHPNWTNTQVRSSLENTTTKLGDSFYYGKGLINVQAAAQ
- average optical density (×1000), antigen-specific IgG ([1]; serum dilution 10): 2937.5
- average optical density (×1000), antigen-specific IgG ([1]; serum dilution 100): 2476
- average optical density (×1000), antigen-specific IgG ([1]; serum dilution 1000): 1695
- average optical density (×1000), antigen-specific IgG ([1]; serum dilution 10000): 641.5
- average optical density (×1000), antigen-specific IgG ([1]; serum dilution 100000): 207
- average optical density (×1000), antigen-specific IgG ([1]; serum dilution 1000000): 129.5
- average optical density (×1000), antigen-specific IgG ([1]; serum dilution 10000000): 88.5
